Paper PMC8595651

Target: Fibrillar type I collagen (PureCol atelo-type I collagen, Advanced Biomatrix Cat# 5005) (UniProt P02453)
Assay: ELISA

UniProt P02453, sequence (P02453 162-1217, chain 1 of 2): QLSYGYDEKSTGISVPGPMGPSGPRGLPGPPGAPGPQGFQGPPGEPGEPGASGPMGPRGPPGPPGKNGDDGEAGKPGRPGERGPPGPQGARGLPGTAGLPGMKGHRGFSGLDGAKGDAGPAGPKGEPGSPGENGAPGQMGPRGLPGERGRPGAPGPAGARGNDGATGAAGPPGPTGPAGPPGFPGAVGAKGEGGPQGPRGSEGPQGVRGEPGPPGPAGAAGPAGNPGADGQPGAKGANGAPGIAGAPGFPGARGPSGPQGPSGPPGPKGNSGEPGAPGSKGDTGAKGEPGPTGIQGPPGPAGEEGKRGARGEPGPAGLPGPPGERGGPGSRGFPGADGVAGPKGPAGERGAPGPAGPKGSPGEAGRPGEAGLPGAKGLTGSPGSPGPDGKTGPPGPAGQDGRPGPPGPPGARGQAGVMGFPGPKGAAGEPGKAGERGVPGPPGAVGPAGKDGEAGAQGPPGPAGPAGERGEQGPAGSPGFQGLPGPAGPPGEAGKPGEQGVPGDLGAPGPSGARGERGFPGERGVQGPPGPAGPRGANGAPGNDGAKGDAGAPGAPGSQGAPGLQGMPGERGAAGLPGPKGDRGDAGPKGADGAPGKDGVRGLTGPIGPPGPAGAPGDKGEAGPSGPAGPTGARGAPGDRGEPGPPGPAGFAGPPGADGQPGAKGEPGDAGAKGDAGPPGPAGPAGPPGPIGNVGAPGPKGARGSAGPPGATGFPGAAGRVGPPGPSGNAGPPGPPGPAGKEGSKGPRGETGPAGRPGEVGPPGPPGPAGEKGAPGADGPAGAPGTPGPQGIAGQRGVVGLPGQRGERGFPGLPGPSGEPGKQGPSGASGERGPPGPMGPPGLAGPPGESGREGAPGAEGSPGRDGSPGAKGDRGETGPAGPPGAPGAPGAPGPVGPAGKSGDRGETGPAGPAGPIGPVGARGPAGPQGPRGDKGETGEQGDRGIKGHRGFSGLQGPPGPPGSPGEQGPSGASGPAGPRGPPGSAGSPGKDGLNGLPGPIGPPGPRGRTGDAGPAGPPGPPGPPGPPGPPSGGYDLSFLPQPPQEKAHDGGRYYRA
UniProt P02453, sequence (P02465 80-1117, chain 2 of 2, further chain): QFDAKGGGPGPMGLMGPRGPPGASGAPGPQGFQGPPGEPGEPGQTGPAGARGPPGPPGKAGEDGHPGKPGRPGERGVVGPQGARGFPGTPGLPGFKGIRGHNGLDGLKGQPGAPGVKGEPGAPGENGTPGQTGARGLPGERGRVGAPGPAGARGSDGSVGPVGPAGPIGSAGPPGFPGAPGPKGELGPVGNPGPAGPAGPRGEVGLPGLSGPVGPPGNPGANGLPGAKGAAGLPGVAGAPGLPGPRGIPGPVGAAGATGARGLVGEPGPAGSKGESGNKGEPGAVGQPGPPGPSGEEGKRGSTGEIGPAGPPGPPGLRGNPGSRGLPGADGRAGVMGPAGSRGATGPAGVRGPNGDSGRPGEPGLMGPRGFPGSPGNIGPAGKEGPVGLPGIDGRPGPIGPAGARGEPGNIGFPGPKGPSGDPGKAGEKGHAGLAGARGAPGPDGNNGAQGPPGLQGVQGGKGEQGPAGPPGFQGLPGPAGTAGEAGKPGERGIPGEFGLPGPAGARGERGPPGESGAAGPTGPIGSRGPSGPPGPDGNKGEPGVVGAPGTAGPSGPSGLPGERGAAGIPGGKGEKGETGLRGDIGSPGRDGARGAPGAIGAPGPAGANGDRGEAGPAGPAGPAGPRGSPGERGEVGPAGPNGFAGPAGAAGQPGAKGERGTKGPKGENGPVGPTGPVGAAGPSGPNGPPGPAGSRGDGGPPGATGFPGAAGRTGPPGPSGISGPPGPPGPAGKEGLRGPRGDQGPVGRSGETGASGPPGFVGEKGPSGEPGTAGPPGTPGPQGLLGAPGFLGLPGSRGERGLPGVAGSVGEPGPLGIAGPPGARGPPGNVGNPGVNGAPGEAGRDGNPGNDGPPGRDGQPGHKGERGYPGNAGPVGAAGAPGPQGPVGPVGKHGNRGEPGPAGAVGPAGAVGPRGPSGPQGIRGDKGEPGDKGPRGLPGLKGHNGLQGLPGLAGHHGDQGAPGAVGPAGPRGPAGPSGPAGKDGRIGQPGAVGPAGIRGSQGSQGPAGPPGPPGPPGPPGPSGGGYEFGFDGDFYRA

Question: “WISP1ΔCT (form of WISP1 lacking a CT-domain), overexpressed in 4T1 cells (conditioned medium) (domain or fragment)” was tested. Which binding relative to that of WISP1 at equal concentrations did it give?
Answer: 75%
